Legend:
IL-1β = experiment: Immunohistochemistry staining of organs, LPS-induced mice; type: in vivo; conditions: group 3 vs group 2 (LPS)
Experimental: (§1) Immunohistochemistry (IHC) would be known by an ordinary person skilled in the art. The organs were collected from the mice of the each group for paraffin embedding and histology section. The parafilm-embedded organs were cut into […] sections, deparaffinized in xylene and then rehydrated in graded alcohol. Endogenous peroxidase was quenched with 3% hydrogen peroxide in methanol for 15 mins and the nonspecific binding was blocked with 1% bovine serum albumin at room temperature for 1 hour. The blocked sections were further incubated with 50-folds diluted mouse monoclonal antibodies against p56, TNF-α or IL-1β proteins at 4° C. for 16-18 hours, respectively and then incubated with biotinylated secondary antibodies (Zymed Laboratories, South San Francisco, Calif.) that against the Fc fragment of the co-responding first antibody at room temperature for 20 minutes. Finally, the slides were incubated with avidin-biotin complex reagent and stained with 3,3′-diaminobenzidine according to manufacturer's protocol (Histostain®-Plus Kit, Zymed Laboratories, South San Francisco, Calif.).

TNF-α = experiment: as above; type: in vivo; conditions: group 3 vs group 2 (LPS)
Experimental: as §1

[1] = Hepatic histology (H&E, oil red-O) in high fat diet mice; type: in vivo; conditions: 10 mmol/kg peritoneal injection twice weekly, 4 weeks, group 3 vs group 2
Experimental: (§2) 30 wild-type FVB mice were randomly divided into three groups, wherein the mice of the group 1 were the blank group that were fed with normal condition. The mice of the control group (the group 2) and the experimental group (the group 3) were fed with high fat diet. […] The mice in the group 2 and the group 3 were peritoneally injected with 100 μl of PBS.
(§3) After the administration, livers in the mice of the each group were collected for the histology sections. The hepatic histology of livers in the mice of the each group was […] for H&E staining and oil red-O staining to examined the lipid accumulation in liver, respectively. Furthermore, the product of lipid oxidation in hepatocytes was examined by IHC staining described in example 3 with antibodies against 4-hydroxynonenal ([…]) or malondialdehyde (MDA) on the hepatic tissues of the each group.

[2] = tested on: 4-hydroxynonenal, malondialdehyde; experiment: IHC of lipid oxidation products in hepatic tissue, high fat diet mice; type: in vivo; conditions: 10 mmol/kg peritoneal injection twice weekly, 4 weeks, group 3 vs group 2
Experimental: as §2, §3

[3] = tested on: Fat pad (fatty acid metabolism genes); conditions: Up-regulated, 2.5 mmol/kg daily, 7 days
Experimental: The wild-type FVB mice were divided into the control group and the experimental group, wherein the mice in the experimental group were daily administered with 20 μl peptide-containing solution that contains 2.5 mmol/kg of the present peptide for 7 days. Moreover, the mice in the control group were daily administrated with 20 μl PBS solution for 7 days.
After the daily administration, the tissues of column, muscle, fat pad, liver and kidney were collected for analyzing the expression of multiple targets by system biology analysis. Herein, the altered expressions of the targets in the genome were determined by using DNA microarray which is a well-established tool for systematic biology analysis. Furthermore, the results of the DNA microarray were further categorized and analyzed by bioinformatics analysis to determine the effect and affected signaling pathways of the present polypeptide.
(1) RNA preparation: The total RNA was extracted from the tissue by using RNeasy Mini Kit (Qiagen, Valencia, Calif., USA). The amount of the extracted total RNA was measured by Beckman DU800 spectrophotometer (Beckman Coulter, Fullerton, Calif., USA). In the next step, the quality of the RNA sample with A260/A280 ratio more than 1.8 was further evaluated by Agilent 2100 bioanalyzer (Agilent Technologies, Santa Clara, Calif., USA). When with the RNA integrity number of the sample is more than 8.0, it would be analyzed by the following microarray analysis.
(2) DNA microarray analysis: The procedure of DNA microarray analysis was conducted according to the reference (Cheng, 2007). Briefly, 5 μg of total RNA was amplified by in vitro transcription using MessageAmp™ aRNA kit (Ambion). In the following, the fluorescence dye, Cy5, was chemically labeled on the amplified RNA (aRNA). After the labeling, the fluorescence labeled aRNA was hybridized with Whole Genome OneArray™ in hybridization buffer (Phalanx Biotech Group, Taiwan) on cover slide. Following the hybridization reaction at 50° C. over-night, the non-specific binding on the chip was washed by three washing steps. The washed chip was dried by centrifugation and was scanned by Axon 4000 scanner (Molecular Devices, Sunnyvale, Calif., USA) to measure the fluorescence signals. The fluorescence intensity of Cy5 on each spots was further analyzed by genepix 4.1 (Molecular Devices). First, the signals of each spot were adjusted by deducting the intensity of background. In the next step, the spots including the probes of internal controls or the spots with the signal-to-noise ratios less than 0 would be removed. The qualified spots were normalized by limma package which is belonged to R console (Smyth, 2005).

IL-1β, sequence (P10749 118-269): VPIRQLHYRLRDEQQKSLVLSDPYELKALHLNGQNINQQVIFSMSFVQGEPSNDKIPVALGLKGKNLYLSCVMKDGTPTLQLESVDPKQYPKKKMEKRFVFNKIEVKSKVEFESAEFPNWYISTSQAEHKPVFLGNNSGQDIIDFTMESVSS

B1: present polypeptide: polypeptide comprising the amino acid sequence of SEQ ID No. 1; made by peptide synthesis, recombinant expression or extraction from Momordica charantia (peptide, listed as Artificial synthsis)
chain: SRCQGKSSWPQLVGSTGAAAKAWIERENPRVRAVIIKVGSGATKDFRCDRVRVWVTERGIVARPPTIG
Question: For B1, which “brown zone (active IL-1β signal) in tissue, IHC” value (IL-1β) is on record?
Answer: obviously less than the group 2

Question: What about the “brown zone (active TNF-α signal) in tissue, IHC” value (TNF-α) of the same molecule?
Answer: obviously less than the group 2

Question: What about the “lipid accumulation in the liver” value [1] of the same molecule?
Answer: less lipid accumulation

Question: What about the “products of lipid oxidation (HNE, MDA) in hepatic tissue” value [2] of the same molecule?
Answer: obviously decreased

Question: What about the “Fold, Acox1” value [3] of the same molecule?
Answer: Up-regulated 2.0 folds

Question: What about the “Fold, Acsl4” value [3] of the same molecule?
Answer: Up-regulated 5.1 folds

Question: And the “Fold, Cpt1a” value [3]?
Answer: Up-regulated 3.1 folds

Question: What about the “Fold, Cpt2” value [3] of the same molecule?
Answer: Up-regulated 1.5 folds

Question: What about the “Fold, Hsd17b4” value [3] of the same molecule?
Answer: Up-regulated 1.7 folds

Question: And the “Fold, Sirt1” value [3]?
Answer: Up-regulated 3.0 folds

— US11723946B2, “Methods for regulating transcription of multiple genes and expression of multiple targets” (CHINA MEDICAL UNIVERSITY, priority 2014, dated 2023)
